{"source": "patent US20180200383A1", "binders": {"B1": {"name": "IMGN853 (immunoconjugate of antibody huMov19, sulfo-SPDB and DM4) (antibody, from a related filing, V domains shown, part only)", "VH": "QVQLVQSGAEVVKPGASVKISCKASGYTFTGYFMNWVKQSPGQSLEWIGRIHPYDGDTFYNQKFQGKATLTVDKSSNTAHMELLSLTSEDFAVYYCTRYDGSRAMDYWGQGTTVTVSS", "VL": "DIVLTQSPLSLAVSLGQPAIISCKASQSVSFAGTSLMHWYHQKPGQQPRLLIYRASNLEAGVPDRFSGSGSKTDFTLTISPVEAEDAATYYCQQSREYPYTFGGGTKLEIKR"}}, "target": "human folate receptor 1 (FOLR1) (human) (UniProt P15328)", "sequence (P15328 25-234 limits assumed, form in doubt)": "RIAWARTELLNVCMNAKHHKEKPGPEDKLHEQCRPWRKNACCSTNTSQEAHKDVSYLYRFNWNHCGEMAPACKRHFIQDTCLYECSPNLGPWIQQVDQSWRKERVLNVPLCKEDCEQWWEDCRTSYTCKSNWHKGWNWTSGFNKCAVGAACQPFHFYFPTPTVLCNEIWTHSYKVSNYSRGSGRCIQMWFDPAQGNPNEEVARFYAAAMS", "assay": "cell-based or functional assay"}
{"binder": "B1", "values": [{"measurement": "IC50 of cytotoxicity on Jeg-3 cells (5 days, WST-8)", "result": 1, "unit": "nM"}]}
